Test results as given in article PMC2956967, “Cytochrome P450 102A2 Catalyzes Efficient Oxidation of Sodium Dodecyl Sulphate: A Molecular Tool for Remediation” (Enzyme Research, 2010).

T1: CYP102A2 (Bacillus subtilis, UniProt O08394)
T1 construct: gene cypD; full-length heme-diflavin reductase fusion, about 119 kDa per active site; PCR from genomic DNA, pCR T7/CT-TOPO, E. coli BL21(DE3); untagged enzyme and C-terminal 6His version both made, said kinetically alike
T1 sequence (O08394 1-1061): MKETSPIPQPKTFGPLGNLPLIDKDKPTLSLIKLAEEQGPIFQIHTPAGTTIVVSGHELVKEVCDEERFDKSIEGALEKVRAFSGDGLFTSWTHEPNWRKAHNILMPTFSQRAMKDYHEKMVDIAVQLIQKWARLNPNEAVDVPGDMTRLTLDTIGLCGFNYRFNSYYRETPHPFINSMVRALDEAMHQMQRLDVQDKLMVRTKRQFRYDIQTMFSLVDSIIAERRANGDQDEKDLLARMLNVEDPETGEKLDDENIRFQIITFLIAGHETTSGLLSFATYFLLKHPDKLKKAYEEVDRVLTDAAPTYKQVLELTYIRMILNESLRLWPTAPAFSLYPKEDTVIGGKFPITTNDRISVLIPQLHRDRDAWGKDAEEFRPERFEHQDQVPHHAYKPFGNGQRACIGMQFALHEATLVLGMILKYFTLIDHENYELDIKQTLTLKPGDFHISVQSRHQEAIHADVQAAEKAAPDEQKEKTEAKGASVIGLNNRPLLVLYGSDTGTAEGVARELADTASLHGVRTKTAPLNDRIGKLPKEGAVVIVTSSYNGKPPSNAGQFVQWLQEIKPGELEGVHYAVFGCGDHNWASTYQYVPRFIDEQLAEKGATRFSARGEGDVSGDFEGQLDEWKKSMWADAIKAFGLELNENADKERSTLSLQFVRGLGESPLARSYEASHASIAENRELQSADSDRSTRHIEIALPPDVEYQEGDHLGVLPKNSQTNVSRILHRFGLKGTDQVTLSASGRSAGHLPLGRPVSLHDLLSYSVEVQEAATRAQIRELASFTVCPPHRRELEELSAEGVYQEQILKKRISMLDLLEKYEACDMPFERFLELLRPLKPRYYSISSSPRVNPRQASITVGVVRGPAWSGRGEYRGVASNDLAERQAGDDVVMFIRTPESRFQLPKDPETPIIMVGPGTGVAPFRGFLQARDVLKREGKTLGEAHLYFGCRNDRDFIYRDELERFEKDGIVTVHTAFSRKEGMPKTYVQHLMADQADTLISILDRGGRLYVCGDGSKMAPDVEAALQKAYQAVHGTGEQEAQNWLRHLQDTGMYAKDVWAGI


Key:
CYP102A2 = biological target: T1, CYP102A2; test: product inhibition, NADPH oxidation at […] nm; type: biochemical
purified protein [1] = substrate: CCCCCCCCCCCCOS(=O)(=O)O; test: purified protein; type: biochemical, Bacillus subtilis; details: 0.1 mM NADPH, 0.1 M potassium phosphate pH 7.2, 37 °C, SDS 0.34-1.73 mM, sigmoidal, nH 5.7
purified protein [2] = substrate: CCCCCCCCCCCC(=O)O; test: purified protein; type: biochemical, Bacillus subtilis; details: NADPH co-substrate, 0.1 M potassium phosphate pH 7.2, 37 °C, sigmoidal, nH 8.7
purified protein [3] = substrate: NC(=O)C1=CN([C@@H]2O[C@H](COP(=O)(O)OP(=O)(O)OC[C@H]3O[C@@H](n4cnc5c(N)ncnc54)[C@H](OP(=O)(O)O)[C@@H]3O)[C@@H](O)[C@H]2O)C=CC1; test: purified protein; type: biochemical, Bacillus subtilis; details: 1.735 mM SDS co-substrate, 0.1 M potassium phosphate pH 7.2, 37 °C, NADPH 6.6-100 μM

Row | Ki (CYP102A2) [µM] | Molecule | K0.5 (purified protein [1]) [mM] | Vmax (purified protein [1]) [µmol/min] | K0.5 (purified protein [2]) [mM] | Vmax (purified protein [2]) [µmol/min] | Km (purified protein [3]) [µM] | kcat (purified protein [3]) [s⁻¹] | kcat/Km (purified protein [3]) [M⁻¹ s⁻¹]
1 | 100 | NC(=O)c1ccc[n+]([C@@H]2O[C@H](COP(=O)(O)OP(=O)(O)OC[C@H]3O[C@@H](n4cnc5c(N)ncnc54)[C@H](OP(=O)(O)O)[C@@H]3O)[C@@H](O)[C@H]2O)c1 [NADP^+] |  |  |  |  |  |  | 
2 |  | CYP102A2 (Bacillus subtilis subsp. subtilis str. 168) (protein, full-length heme-diflavin reductase fusion, about 119 kDa per active site; PCR from genomic DNA, pCR T7/CT-TOPO, E. coli BL21(DE3); untagged enzyme and C-terminal 6His version both made, said kinetically alike) MKETSPIPQPKTFGPLGNLPLIDKDKPTLSLIKLAEEQGPIFQIHTPAGTTIVVSGHELVKEVCDEERFDKSIEGALEKVRAFSGDGLFTSWTHEPNWRKAHNILMPTFSQRAMKDYHEKMVDIAVQLIQKWARLNPNEAVDVPGDMTRLTLDTIGLCGFNYRFNSYYRETPHPFINSMVRALDEAMHQMQRLDVQDKLMVRTKRQFRYDIQTMFSLVDSIIAERRANGDQDEKDLLARMLNVEDPETGEKLDDENIRFQIITFLIAGHETTSGLLSFATYFLLKHPDKLKKAYEEVDRVLTDAAPTYKQVLELTYIRMILNESLRLWPTAPAFSLYPKEDTVIGGKFPITTNDRISVLIPQLHRDRDAWGKDAEEFRPERFEHQDQVPHHAYKPFGNGQRACIGMQFALHEATLVLGMILKYFTLIDHENYELDIKQTLTLKPGDFHISVQSRHQEAIHADVQAAEKAAPDEQKEKTEAKGASVIGLNNRPLLVLYGSDTGTAEGVARELADTASLHGVRTKTAPLNDRIGKLPKEGAVVIVTSSYNGKPPSNAGQFVQWLQEIKPGELEGVHYAVFGCGDHNWASTYQYVPRFIDEQLAEKGATRFSARGEGDVSGDFEGQLDEWKKSMWADAIKAFGLELNENADKERSTLSLQFVRGLGESPLARSYEASHASIAENRELQSADSDRSTRHIEIALPPDVEYQEGDHLGVLPKNSQTNVSRILHRFGLKGTDQVTLSASGRSAGHLPLGRPVSLHDLLSYSVEVQEAATRAQIRELASFTVCPPHRRELEELSAEGVYQEQILKKRISMLDLLEKYEACDMPFERFLELLRPLKPRYYSISSSPRVNPRQASITVGVVRGPAWSGRGEYRGVASNDLAERQAGDDVVMFIRTPESRFQLPKDPETPIIMVGPGTGVAPFRGFLQARDVLKREGKTLGEAHLYFGCRNDRDFIYRDELERFEKDGIVTVHTAFSRKEGMPKTYVQHLMADQADTLISILDRGGRLYVCGDGSKMAPDVEAALQKAYQAVHGTGEQEAQNWLRHLQDTGMYAKDVWAGI | 1.22 ± 0.04 | 0.18 | 0.47 ± 0.005 | 0.088 | 8.30 ± 0.62 | 2.05 ± 0.05 | 250000
